According to patent US20230212319A1, “NOVEL ANTIGEN BINDING DOMAINS AND SYNTHETIC ANTIGEN RECEPTORS INCORPORATING THE SAME” (University of Southern California, priority 2020, published 2023):

test system: RAJI cells; assay: JNG assay, co-culture with RAJI cells; type: cell-based; settings: JNG cells expressing construct, co-culture with Raji
Procedure: Cellular supernatant is collected and assayed for the induction of cytokines (e.g., IL2).
JNG (Jurkat cells expressing EGFP under an NFAT promoter) were infected with lentiviral vectors encoding different single chain and multi-chain SARs by spinfection in the presence of 8 µg/ml of Polybrene® (Sigma, Catalog no. H9268). The Jurkat-NFAT-GFP cells are engineered in such a way that the IL-2 promoter, which carries NFAT binding sites, is cloned upstream of the GFP gene. These cells have been used to study signaling via TCR and CAR. The different SARs were stably expressed in Jurkat NFAT-GFP cells by lentiviral mediated gene transfer, followed by selection with puromycin or blasticidin. No drug selection was used in case the construct lacked an antibiotic resistance gene. The SAR-expressing Jurkat-NFAT-GFP cells were cocultured with the target cells at E:T ratio of approximately 1:2 for approximately 4 hours to 18 hours. When the interaction between SIRs and their target antigen results in activation of the NFAT pathway, GFP expression is induced. […] GFP expression was monitored by FACS analysis. The Jurkat-NFAT-GFP (parental) cells were used as control. The structure of different constructs can be determined based on their names. […] The sequence of the other constructs in the table can be similarly determined from their names and by referring to the different Tables of this disclosure that provide the names and SEQ ID NO of the different modules. Alternatively, the composition and modular architecture of the different SAR constructs can be determined from their sequences by bioinformatics tools, including using nucleic acid and amino acids homology searches. A SAR is considered positive in the assay in case the SAR expressing Jurkat-NFAT-GFP cells show greater % GFP positive cells when cultured with the target cell line as compared to parental Jurkat-NFAT-GFP cells. […] In general, the number +/-, +, 2+, 3+, 4+, 5+ refer to approximately 5%, 10%, 20%, 30%, 40% and 50% GFP positive cells. The % of GFP induction in the above assay is dependent not only the relative strength of the SAR but also, among other factors, on the relative level of expression of the SAR in the JNG cells and the relative level of expression of the target antigen in the target cell line. To control for the difference in gene transduction efficiency of the different SAR constructs, the experiment was conducted with JNG cells transduced with SAR constructs co-expressing a drug resistance gene (e.g., puromycin or PAC) followed by drug selection to generate a stable population of SAR-expressing cells. It is to be noted that the drug resistance gene (e.g., PAC) in the SAR constructs is optional and in vivo studies were conducted with SAR constructs lacking the PAC gene.

Molecule | NFAT-GFP ASSAY: Raji
22001 (protein) MALPVTALLLPLALLLHAARPQLQLQESGPGLVKPSETLSLTCTVSGDSISSGDYYWGWIRQPPGKGLEWIGHIYYSGVTYYNPSLKSRVTISVDTSRNQFSLKLSSVTAADTAVYYCTREDSSNWRSRGQGTLVTVSSLEPGGGGSPEDLKNVFPPEVAVFEPSEAEISHTQKATLVCLATGFYPDHVELSWWVNGKEVHSGVCTDPQPLKEQPALNDSRYCLSSRLRVSATFWQNPRNHFRCQVQFYGLSENDEWTQDRAKPVTQIVSAEAWGRADCGFTSESYQQGVLSATILYEILLGKATLYAVLVSALVLMAMVKRKDSRGRAKRSGSGATNFSLLKQAGDVEENPGPTSMDWIWRILFLVGAATGAHSFEVQLLESGGGLIQPGGSLRLSCAASGFTFSSHAMTWVRQAPGKGLEWVSAISGSGDYTHYADSVKGRFTISRDNSKNTVYLQMNSLRAEDSAVYYCAKDEDGGSLLGHRGQGTLVTVSSTRIQNPDPAVYQLRDSKSSDKSVCLFTDFDSQTNVSQSKDSDVYITDKCVLDMRSMDFKSNSAVAWSNKSDFACANAFNNSIIPEDTFFPSPESSCDVKLVEKSFETDTNLNFQNLSVIGFRILLLKVAGFNLLMTLRLWSSRAKRSGSGVKQTLNFDLLKLAGDVESNPGPSRGHMTEYKPTVRLATRDDVPRAVRTLAAAFADYPATRHTVDPDRHIERVTELQELFLTRVGLDIGKVWVADDGAAVAVWTTPESVEAGAVFAEIGPRMAELSGSRLAAQQQMEGLLAPHRPKEPAWFLATVGVSPDHQGKGLGSAVVLPGVEAAERAGVPAFLETSAPRNLPFYERLGFTVTADVEVPEGPRTWCMTRKPGA | +/- (refer to approximately 5%, 10%, 20%, 30%, 40% and 50% GFP positive cells)
21993 (protein) MALPVTALLLPLALLLHAARPQLQLQESGPGLVKPSETLSLTCTVSGDSISSGDYYWGWIRQPPGKGLEWIGHIYYSGVTYYNPSLKSRVTISVDTSRNQFSLKLSSVTAADTAVYYCTREDSSNWRSRGQGTLVTVSSLEDLKNVFPPEVAVFEPSEAEISHTQKATLVCLATGFYPDHVELSWWVNGKEVHSGVCTDPQPLKEQPALNDSRYCLSSRLRVSATFWQNPRNHFRCQVQFYGLSENDEWTQDRAKPVTQIVSAEAWGRADCGFTSESYQQGVLSATILYEILLGKATLYAVLVSALVLMAMVKRKDSRGRAKRSGSGATNFSLLKQAGDVEENPGPTSMDWIWRILFLVGAATGAHSFEQLQLQESGPGLVKPSETLSLTCTVSGGSISSGDYYWGWIRQPPGKGLEWIGHIYYSGATYYNPSLKSRVTISVDTSRNQFSLKLSSVTAADTAVYYCTRDDSSNWRSRGQGTLVTVSSTRIQNPDPAVYQLRDSKSSDKSVCLFTDFDSQTNVSQSKDSDVYITDKCVLDMRSMDFKSNSAVAWSNKSDFACANAFNNSIIPEDTFFPSPESSCDVKLVEKSFETDTNLNFQNLSVIGFRILLLKVAGFNLLMTLRLWSSRAKRSGSGVKQTLNFDLLKLAGDVESNPGPSRGHMTEYKPTVRLATRDDVPRAVRTLAAAFADYPATRHTVDPDRHIERVTELQELFLTRVGLDIGKVWVADDGAAVAVWTTPESVEAGAVFAEIGPRMAELSGSRLAAQQQMEGLLAPHRPKEPAWFLATVGVSPDHQGKGLGSAVVLPGVEAAERAGVPAFLETSAPRNLPFYERLGFTVTADVEVPEGPRTWCMTRKPGA | Raji (+/-) (refer to approximately 5%, 10%, 20%, 30%, 40% and 50% GFP positive cells)
21995 (protein) MALPVTALLLPLALLLHAARPQLQLQESGPGLVKPSETLSLTCTVSGDSISSGDYYWGWIRQPPGKGLEWIGHIYYSGVTYYNPSLKSRVTISVDTSRNQFSLKLSSVTAADTAVYYCTREDSSNWRSRGQGTLVTVSSLEDLKNVFPPEVAVFEPSEAEISHTQKATLVCLATGFYPDHVELSWWVNGKEVHSGVCTDPQPLKEQPALNDSRYCLSSRLRVSATFWQNPRNHFRCQVQFYGLSENDEWTQDRAKPVTQIVSAEAWGRADCGFTSESYQQGVLSATILYEILLGKATLYAVLVSALVLMAMVKRKDSRGRAKRSGSGATNFSLLKQAGDVEENPGPTSMDWIWRILFLVGAATGAHSFEVQLLESGGGLVQPGGSLRLSCAASGFIFSIYAMSWVRQAPGKGLEWVSGISGSGVNTYYADSVKGRFIISRDNSRNTVYLQMNSLRADDTAVYHCANGKGWDGNTWYEDYRGQGTLVTVSSTRIQNPDPAVYQLRDSKSSDKSVCLFTDFDSQTNVSQSKDSDVYITDKCVLDMRSMDFKSNSAVAWSNKSDFACANAFNNSIIPEDTFFPSPESSCDVKLVEKSFETDTNLNFQNLSVIGFRILLLKVAGFNLLMTLRLWSSRAKRSGSGVKQTLNFDLLKLAGDVESNPGPSRGHMTEYKPTVRLATRDDVPRAVRTLAAAFADYPATRHTVDPDRHIERVTELQELFLTRVGLDIGKVWVADDGAAVAVWTTPESVEAGAVFAEIGPRMAELSGSRLAAQQQMEGLLAPHRPKEPAWFLATVGVSPDHQGKGLGSAVVLPGVEAAERAGVPAFLETSAPRNLPFYERLGFTVTADVEVPEGPRTWCMTRKPGA | + (refer to approximately 5%, 10%, 20%, 30%, 40% and 50% GFP positive cells)
22008 (protein) MALPVTALLLPLALLLHAARPQLQLQESGPGLVKPSETLSLTCTVSGDSISSGDYYWGWIRQPPGKGLEWIGHIYYSGVTYYNPSLKSRVTISVDTSRNQFSLKLSSVTAADTAVYYCTREDSSNWRSRGQGTLVTVSSLEDLKNVFPPEVAVFEPSEAEISHTQKATLVCLATGFYPDHVELSWWVNGKEVHSGVCTDPQPLKEQPALNDSRYCLSSRLRVSATFWQNPRNHFRCQVQFYGLSENDEWTQDRAKPVTQIVSAEAWGRADCGFTSESYQQGVLSATILYEILLGKATLYAVLVSALVLMAMVKRKDSRGRAKRSGSGATNFSLLKQAGDVEENPGPTSMDWIWRILFLVGAATGAHSFEVQLLESGGGLVQPGGSLRLSCAASGFIFSSYAMSWVRQAPGKGQEWVSGVSGTGVNTYYADSVKGRFTISRDNSKNTLYLQMNSLRAEDTAVYYCASGKGWDSGSWYEDYRGQGTLVTVSSTRIQNPDPAVYQLRDSKSSDKSVCLFTDFDSQTNVSQSKDSDVYITDKCVLDMRSMDFKSNSAVAWSNKSDFACANAFNNSIIPEDTFFPSPESSCDVKLVEKSFETDTNLNFQNLSVIGFRILLLKVAGFNLLMTLRLWSSRAKRSGSGVKQTLNFDLLKLAGDVESNPGPSRGHMTEYKPTVRLATRDDVPRAVRTLAAAFADYPATRHTVDPDRHIERVTELQELFLTRVGLDIGKVWVADDGAAVAVWTTPESVEAGAVFAEIGPRMAELSGSRLAAQQQMEGLLAPHRPKEPAWFLATVGVSPDHQGKGLGSAVVLPGVEAAERAGVPAFLETSAPRNLPFYERLGFTVTADVEVPEGPRTWCMTRKPGA | +/- (refer to approximately 5%, 10%, 20%, 30%, 40% and 50% GFP positive cells)
22006 (protein) MALPVTALLLPLALLLHAARPLEGKPIPNPLLGLDSTGSGEDLKNVFPPEVAVFEPSKAEIAHTQKATLVCLATGFYPDHVELSWWVNGKEVHSGVCTDPQPLKEQPALNDSRYCLSSRLRVSATFWQNPRNHFRCQVQFYGLSENDEWTQDRAKPVTQIVSAEAWGRADCGITSASYHQGVLSATILYEILLGKATLYAVLVSALVLMAMVKRKDSRGRAKRSGSGATNFSLLKQAGDVEENPGPTSTMALPVTALLLPLALLLHAARPEVQLVESGGGLVQPGGSLRLSCTFSGGTFSSYTMGWFRQAPGKEREFVAEVRWGGVTTYSNSLKDRFSISEDSVKNAVYLQMNSLKPEDTAVYYCAAVRQMYMTVVPDYWGQGTLVTVSSTREQKLISEEDGSGIQNPDPAVYQLRDSKSSDKSVCLFTDFDSQTNVSQSKDSDVYITDKCVLDMRSMDFKSNSAVAWSNKSDFACANAFNNSIIPEDTFFPSSDVPCDVKLVEKSFETDTNLNFQNLSVIGFRILLLKVAGFNLLMTLRLWSSRAKRSGSGVKQTLNFDLLKLAGDVESNPGPSRGHMTEYKPTVRLATRDDVPRAVRTLAAAFADYPATRHTVDPDRHIERVTELQELFLTRVGLDIGKVWVADDGAAVAVWTTPESVEAGAVFAEIGPRMAELSGSRLAAQQQMEGLLAPHRPKEPAWFLATVGVSPDHQGKGLGSAVVLPGVEAAERAGVPAFLETSAPRNLPFYERLGFTVTADVEVPEGPRTWCMTRKPGA | + (refer to approximately 5%, 10%, 20%, 30%, 40% and 50% GFP positive cells)
